{"source": "patent US7070974B1", "about": "“Metalloproteases of the neprilysin family” (Universite de Montreal, priority 1999, dated 2006)", "assay_type_in_all_cases": "biochemical", "key": {"[1]": {"biological_target": "T1, sNEP (engineered soluble form of NEP) (Oryctolagus cuniculus, UniProt P08049)", "T1 construct": "Fusion of a cleavable signal peptide to the ectodomain of neutral endopeptidase; cleavable signal peptide of proopiomelanocortin (replaces cytosolic and transmembrane domains) (N, cleaved yes); made in house; host or cells: LLC-PK1 cells transfected with pRcCMV-sNEP; concentrated culture medium", "T1 sequence (P08049 52-750 limits assumed)": "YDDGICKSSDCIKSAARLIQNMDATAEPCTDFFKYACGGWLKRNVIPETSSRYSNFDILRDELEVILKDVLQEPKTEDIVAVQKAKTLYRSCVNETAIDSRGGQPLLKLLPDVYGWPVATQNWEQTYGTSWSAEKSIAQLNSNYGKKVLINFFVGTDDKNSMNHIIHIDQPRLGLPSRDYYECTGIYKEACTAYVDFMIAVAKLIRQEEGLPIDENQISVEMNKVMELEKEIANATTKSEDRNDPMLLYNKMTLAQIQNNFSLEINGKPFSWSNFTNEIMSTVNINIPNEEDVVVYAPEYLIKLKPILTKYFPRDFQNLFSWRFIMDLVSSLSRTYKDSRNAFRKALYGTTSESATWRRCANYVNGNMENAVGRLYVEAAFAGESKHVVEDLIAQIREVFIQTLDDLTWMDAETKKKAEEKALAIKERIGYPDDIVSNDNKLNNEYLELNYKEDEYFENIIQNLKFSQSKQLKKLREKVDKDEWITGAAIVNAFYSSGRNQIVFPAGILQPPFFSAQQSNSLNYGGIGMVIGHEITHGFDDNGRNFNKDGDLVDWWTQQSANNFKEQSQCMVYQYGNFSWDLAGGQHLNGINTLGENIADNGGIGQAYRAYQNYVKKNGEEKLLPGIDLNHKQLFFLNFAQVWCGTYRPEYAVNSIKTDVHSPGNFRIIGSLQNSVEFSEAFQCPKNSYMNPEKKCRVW", "experiment": "sNEP enzymatic activity assay with (Tyrosyl-[3,5-3H])(D-Ala2)-Leu5-enkephalin as substrate", "settings": "substrate of sNEP; isotope-dilution method"}, "soluble form of NL-3": {"biological_target": "T2, soluble form of NL-3 (Homo sapiens, UniProt O95672)", "T2 construct": "the ectodomain of NL-3 (from the third cysteine to the end) was spliced to NL-1 amino-terminal domain; mouse NL-1 amino-terminal domain (initiator methionine to the furin site) (N); made in house; host or cells: COS-1 and HEK 293 cells transfected with pRcCMV; spent culture medium", "T2 sequence (O95672 83-775 limits assumed)": "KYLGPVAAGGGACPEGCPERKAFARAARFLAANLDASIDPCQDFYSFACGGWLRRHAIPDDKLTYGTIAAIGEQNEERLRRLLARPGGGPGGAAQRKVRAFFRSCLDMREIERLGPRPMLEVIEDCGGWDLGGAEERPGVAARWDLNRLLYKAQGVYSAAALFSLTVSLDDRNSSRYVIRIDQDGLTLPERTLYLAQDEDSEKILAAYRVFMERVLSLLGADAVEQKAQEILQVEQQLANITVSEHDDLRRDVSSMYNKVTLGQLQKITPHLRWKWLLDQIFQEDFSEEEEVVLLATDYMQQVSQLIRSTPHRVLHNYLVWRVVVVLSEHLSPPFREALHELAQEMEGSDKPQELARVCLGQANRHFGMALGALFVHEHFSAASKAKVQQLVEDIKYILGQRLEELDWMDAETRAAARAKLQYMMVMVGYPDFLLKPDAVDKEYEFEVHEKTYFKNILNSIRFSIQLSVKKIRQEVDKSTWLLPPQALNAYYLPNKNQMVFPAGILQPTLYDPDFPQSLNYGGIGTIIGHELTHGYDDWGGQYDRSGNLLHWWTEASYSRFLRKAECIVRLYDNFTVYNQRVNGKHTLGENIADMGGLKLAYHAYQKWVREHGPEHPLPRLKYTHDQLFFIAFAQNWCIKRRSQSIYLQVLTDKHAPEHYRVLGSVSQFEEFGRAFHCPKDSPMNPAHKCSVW", "experiment": "Soluble NL-3 activity assay with [3H]-Tyr-(D)Ala2-Leu-enkephalin as substrate", "settings": "soluble NL-3 from the NL-1 amino-terminal fusion", "experimental": "(§1) Extracts of cellular proteins and culture media were assayed for enzymatic activity. Two tests were performed. The first used [^3H]-Tyr-(D)Ala2-Leu-enkephalin as substrate and was performed according to Lemay et al., (1989). The second used bradykinin as substrate and was performed as described by Raut et al. (1999).\nThe observation that NL-1 ectodomain was secreted, possibly through cleavage of the transmembrane segment by furin, raised the possibility to promote secretion of exogenous proteins that could be spliced to NL-1 amino-terminal domain (from initiator methionine to the furin site). To test this hypothesis, the ectodomain of NL-3 (from the third cysteine to the end) was spliced to NL-1 amino-terminal domain using a PCR strategy and the recombinant DNA cloned in expression vector pRcCMV. The fusion protein was expressed by transfection of the vector in COS-1 and HEK 293 cells. The culture media of transfected cells was analyzed by immunoblotting using the mouse antiserum against NL-3."}, "NL1": {"biological_target": "T3, NL1 (Mus musculus, UniProt Q9JLI3)", "T3 sequence (Q9JLI3 63-765 limits assumed)": "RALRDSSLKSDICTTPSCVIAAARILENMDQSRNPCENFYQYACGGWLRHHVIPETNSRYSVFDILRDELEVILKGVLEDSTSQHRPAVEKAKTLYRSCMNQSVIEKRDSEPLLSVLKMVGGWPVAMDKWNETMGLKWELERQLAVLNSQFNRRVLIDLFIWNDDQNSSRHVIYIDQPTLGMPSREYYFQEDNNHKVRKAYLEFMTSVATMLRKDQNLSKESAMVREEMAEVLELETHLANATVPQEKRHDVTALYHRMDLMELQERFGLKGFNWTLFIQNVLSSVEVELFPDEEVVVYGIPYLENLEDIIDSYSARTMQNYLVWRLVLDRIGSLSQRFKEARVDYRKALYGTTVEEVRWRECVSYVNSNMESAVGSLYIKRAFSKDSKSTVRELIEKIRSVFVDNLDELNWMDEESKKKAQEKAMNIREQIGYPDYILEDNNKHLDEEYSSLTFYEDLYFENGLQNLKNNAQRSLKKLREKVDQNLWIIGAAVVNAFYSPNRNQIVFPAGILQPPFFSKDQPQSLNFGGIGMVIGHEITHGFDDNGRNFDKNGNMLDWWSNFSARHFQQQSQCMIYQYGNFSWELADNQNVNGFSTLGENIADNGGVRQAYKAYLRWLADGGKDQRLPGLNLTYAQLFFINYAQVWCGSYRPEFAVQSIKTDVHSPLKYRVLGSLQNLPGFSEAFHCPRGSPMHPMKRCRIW", "experiment": "NL-1 enzymatic activity assay with (Tyrosyl-[3,5-3H])(D-Ala2)-Leu5-enkephalin as substrate", "design": "The soluble form of NL-1 was assayed for activity; made in house; host or cells: CHO cells (section 1, pcDNA3-RSV) and HEK 293 cells (section 2, pCDNA3/RSV)", "experimental": "as §1\nNL1 activity was monitored and compared to sNEP activity using (Tyrosyl-[3,5-^3H])(D-Ala2)-Leu5-enkephalin (50 Ci/mmol) (Research Products International Inc.), as already described (Dion 1995; Devault 1988). Km values were determined by the isotope-dilution method."}}, "note": "Starred links: 1 amine or outer side, 2 acyl side, 3 side chain; linkers in the order of their positions; H or OH if unused. Non-standard residues stand in square brackets, D forms with d. No end group written: not given here. Tyr(3,5-3H) = [3H]c1cc(C[C@H](N[*:1])C(=O)[*:2])cc([3H])c1O[*:3]"}
{"substance": "(Tyrosyl-[3,5-^3H])(D-Ala2)-Leu5-enkephalin ([Tyr(3,5-3H)][dA]GFL) [D-Ala2-Leu5-enkephalin]", "values": [{"measurement": "Km", "setting": "[1]", "value": 73, "unit": "µM"}, {"measurement": "activity of soluble NL-3 on the substrate", "setting": "soluble form of NL-3", "value": "No activity"}, {"measurement": "Km value of NL1 relative to NEP", "setting": "NL1; fold lower for NL1 than NEP", "value": "4- to 5 fold"}, {"measurement": "Km", "setting": "NL1; substrate of soluble NL-1, isotope-dilution method", "value": 18, "unit": "µM"}]}
